# Measured values from the nanobody polyreactivity screen of Harvey et al. (2022).
# Assay: yeast display, Sf9 membrane polyspecificity reagent, FACS + sequencing; frameworks hold sequencing errors
# Method in brief: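 Synthetic nanobody libraries on Saccharomyces cerevisiae BJ5465 were galactose-induced for 36–48 hours, stained 1 hour at 4 °C with 10% biotinylated, detergent-solubilized Sf9 membrane reagent and enriched on streptavidin microbeads. FACS then separated cells into low and high (top ~1%) gates by anti-HA (expression) and streptavidin (reagent binding) fluorescence. Genes were colony-PCR amplified, MiSeq 2 × 250 sequenced and CDR-length filtered. A clone's polyreactivity label is that of its gate of origin.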
row,Sequence,polyreactivity (PSR sort gate)
1,QVQLVESGGGLVQAGGSLRLSCGASGAIFSRYAMGWSRPAPGKERQLVAAITSSGGSTYYADSVKGRFTISRDNAKNTVYLQMNSLKPEDTAVYYCATQYAGPWGEYDYWGQGTQVTVSS,low polyreactivity
2,QVQLVESGGGLVQAGGSLRLSCGASGFSFTRTAMGWYRQAPGKERELVAAISRGGSTNYADSVKGRFTISRDNAKITVYFQMNSLNPEDPSLYFCAKVRTRATPGVDYYYWGQGSQVTVSS,high polyreactivity
3,QVQLVESGGGLVQAGGSLRLSCGASGFTFDVYAMGWYRQAPGKERELVARIRWSGGSTSYADSVKGRFTISRDNAKNTVYVQMNSLKPEDTAVYYCNTRRIYVNSGRGDYWGQGTKVTVSS,low polyreactivity
4,QVQLVESGGGLVQAGGSLRLSCGASGFTFQFYDRGGYRQAPGKEREFVATITWRAGSTYSADSVKGRFTISRDNAKNTVYLQMNSLKPEDTAVYYCNADYYRHSLDYDYVGYDYWGQGTQVTVSS,low polyreactivity
5,QVQLVESGGGLVQAGGSLRLSCGASGFTFRPYAMGWYRQAPGKERELVAAITSGDSTNYADSVKGRFTISCDNAKNTVYLQMNSLKPEDTAVYYCAADSTGRPSVSYDYWGQGTQVTVSS,low polyreactivity
6,QVQLVESGGGLVQAGGSLRLSCGASGRIFGPYTMGWARQGPGKERELVARISRRGGSTYYADSVKGRFTISRDNAKNTVYLQMNSLKPEDTAVYYCARSQAVYDGWFAKFGYWGQGTQVTVSS,low polyreactivity
7,QVQLVESGGGLVQAGGSLRLSCGASGRIFTRYAMGWYRQAPGKERELVAAISYGGGGTYYADSVKGRFTISRDNAKNTVYLQINSLKPEDTAVYYCATDDPLSQINEQCMDYWGQGTQVTVSS,low polyreactivity
8,QVQLVESGGGLVQAGGSLRLSCGASGRTFYRYDMGWYRQAPGKERELVASITSGGNTNYADSVKGRFTISRDNAKNTVYLQMNSLKPEDTAVYYCAKEWYRVQHYRLITEFDYWGQGTQVTVSS,high polyreactivity
9,QVQLVESGGGLVQAGGSLRLSCGASGSIFKYYAMGWYREARGKERELVAAITWSGGRTNYADSVKGRFTISRDNAKNTVYLQMNSLKPEDTAVYYCAATRRRYRPYEYWGLGTQVTVSS,high polyreactivity
10,QVQLVESGGGLVQAGGSLRLSCGASGSTFAYYTMGWYRQAPAKERELVAAITSGGRTSYAESVKGRFTISRDNAKNTVYLQMNSLKPEDTAVYYCAKGRKPGYYYWGQGTQVTVSS,high polyreactivity
11,QVQLVESGGGLVQAGGSLRLSCGASGSTFDHYAMGWYRQAPGKERELVAAITRSGGSTYYADSVKGRFTISRDNAKNTVYIQMNSLKPEDTAVYYCNARRWITSDYWGQGTQVTVSS,high polyreactivity
12,QVQLVESGGGLVQAGGSLRLSCPASGFIFYDYAMGWYRQAPGKERELVAAISSGGSTNYADSVKGRFTISRDNAKNTVYLQMNSLKPEDTAVYYCAADDRSYATWKRDYDYWGQGTQVTVSS,low polyreactivity
13,QVQLVESGGGLVQAGGSLRLSCPASGFTFGSYAMGWYRQAPGKETEFVAVITRSGRTNYADSVKGRFTISRDNAKNTVYLQMNSLKPEDTAVYYCYADDVDDEVSPDLTEMDYWGQGTQVTVSS,low polyreactivity
14,QVQLVESGGGLVQAGGSLRLSCPASGFTFGYYAMGWYRQSPGKESELVATITSSGASTYADSVKGRFTISGDNAKNTVYLQMISLKPEDTAVYYCAADRLPSYWSWYGYDYWVQGTQVTVSS,high polyreactivity
15,QVQLVESGGGLVQAGGSLRLSCPASGFTIRRNAMGCYRQAPGKERELVAAITRGGGSTYYADSVKGRFTISRDNAKNTVYLQMNSLKPEDTAVYYCSADGYYQYESWGQGTQVTVSS,high polyreactivity
16,QVQLVESGGGLVQAGGSLRLSCPASGFYAMGWYRQAPGKERELVAAIRGSGSSTYYADSVKGRFTISRDNAKNTVYLQMNSLKPEDTAVYYCAKQGYLVWSGWRWYDYWGQGTQVTVSS,low polyreactivity
